How the values were obtained:
human Claudin 3 [1] = target: T1, human Claudin 3 (human, UniProt O15551 1-220); test: flow cytometry, hCLDN3/DG44 cells, 1 ug/mL antibody
T1 construct: forced expression in DG44 or Ba/F3 cells, or endogenous on MCF7 cells; four-transmembrane tight junction protein; also called hCLDN3; hCLN3
T1 sequence: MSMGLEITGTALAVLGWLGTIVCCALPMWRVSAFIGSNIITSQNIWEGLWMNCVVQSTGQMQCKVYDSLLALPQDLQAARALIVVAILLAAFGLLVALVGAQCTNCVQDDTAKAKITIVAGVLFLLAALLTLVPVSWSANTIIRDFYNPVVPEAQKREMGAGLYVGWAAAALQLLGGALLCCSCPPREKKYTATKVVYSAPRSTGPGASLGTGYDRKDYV

human Claudin 3 [2] = target: T1, human Claudin 3; test: flow cytometry, hCLDN3/DG44 cells, 5 ug/mL antibody
[3] = target: T2, human Claudin 1 with C-terminal FLAG tag (human, UniProt O95832 1-211); test: flow cytometry, hCLDN1/Ba/F3 cells, 2 ug/mL antibody
T2 construct: whole, on cells; forced expression in Ba/F3 cells; also called hCLDN1; hCLN1
T2 sequence (looked up): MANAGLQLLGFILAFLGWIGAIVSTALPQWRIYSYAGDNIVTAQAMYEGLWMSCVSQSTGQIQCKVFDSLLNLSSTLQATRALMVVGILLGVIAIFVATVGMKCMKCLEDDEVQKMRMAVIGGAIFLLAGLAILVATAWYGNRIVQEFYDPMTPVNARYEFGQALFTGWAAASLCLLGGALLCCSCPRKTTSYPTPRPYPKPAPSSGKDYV
Experimental: (§1) A monoclonal antibody was added to the respective forced expression cells, and then incubated at 4° C. for 30 minutes. After incubation, the cells were washed once with a PBS solution containing 1% fetal bovine serum, then a 150-fold dilution of an FITC-goat anti-mouse IgG (H+L) antibody (Beckman Coulter) was added, and this was incubated at 4° C. for 30 minutes. The amount of antibodies bound per cell was measured using FACSCalibur, and the X geometric mean value, which is the geometric mean of the cell fluorescence intensity, was calculated using the accessory CellQuest Pro analysis software of FACSCalibur.
(§2) The cross reactivity for human Claudin 3, human Claudin 1, human Claudin 4, human Claudin 6, and mouse Claudin 3 forcedly expressed in Ba/F3 was evaluated using at a final antibody concentration of 2 μg/mL.

human Claudin 3 [4] = target: T1, human Claudin 3; test: flow cytometry, hCLDN3/Ba/F3 cells, 2 ug/mL antibody
Experimental: as §1, §2

[5] = target: T3, human Claudin 4 with C-terminal FLAG tag (human, UniProt O14493 1-209); test: flow cytometry, hCLDN4/Ba/F3 cells, 2 ug/mL antibody
T3 construct: whole, on cells; forced expression in Ba/F3 cells; also called hCLDN4; hCLN4
T3 sequence (looked up): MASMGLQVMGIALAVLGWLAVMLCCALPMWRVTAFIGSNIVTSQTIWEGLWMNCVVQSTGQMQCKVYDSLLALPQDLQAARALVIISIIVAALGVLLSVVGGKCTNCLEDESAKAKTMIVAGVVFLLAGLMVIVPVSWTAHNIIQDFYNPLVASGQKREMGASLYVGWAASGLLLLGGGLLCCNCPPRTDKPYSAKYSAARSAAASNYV
Experimental: as §1, §2

[6] = target: T4, human Claudin 6 with C-terminal FLAG tag (human, UniProt P56747 1-220); test: flow cytometry, hCLDN6/Ba/F3 cells, 2 ug/mL antibody
T4 construct: whole, on cells; forced expression in Ba/F3 cells; also called hCLDN6; hCLN6
T4 sequence (looked up): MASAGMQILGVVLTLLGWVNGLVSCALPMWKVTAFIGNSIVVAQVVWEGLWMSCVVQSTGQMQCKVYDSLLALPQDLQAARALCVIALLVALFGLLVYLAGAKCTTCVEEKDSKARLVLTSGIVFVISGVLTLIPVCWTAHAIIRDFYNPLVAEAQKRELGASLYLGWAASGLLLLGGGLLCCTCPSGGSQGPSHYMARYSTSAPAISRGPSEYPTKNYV
Experimental: as §1, §2

mouse Claudin 3 = target: T5, mouse Claudin 3 (mouse, UniProt Q9Z0G9 1-219); test: flow cytometry, mCLDN3/Ba/F3 cells, 2 ug/mL antibody
T5 construct: whole, on cells; also called mCLDN3; mCLN3
T5 sequence (looked up): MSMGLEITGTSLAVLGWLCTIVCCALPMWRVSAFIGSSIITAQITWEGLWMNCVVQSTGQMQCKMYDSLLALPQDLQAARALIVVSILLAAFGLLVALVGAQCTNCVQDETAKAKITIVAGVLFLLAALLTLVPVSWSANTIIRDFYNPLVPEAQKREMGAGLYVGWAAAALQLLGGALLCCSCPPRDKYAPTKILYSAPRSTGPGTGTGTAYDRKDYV
Experimental: as §1, §2

human Claudin 3 [7] = target: T1, human Claudin 3; test: flow cytometry, hCLDN3/DG44 cells, 0.1 ug/mL antibody
human Claudin 3 [8] = target: T1, human Claudin 3; test: flow cytometry, MCF7 cells (endogenous Claudin 3), 1 ug/mL antibody
Experimental: as §1
(§3) The affinity of the antibodies to the MCF7 breast cancer cell line (ATCC, HTB-22), which endogenously expresses Claudin 3, was evaluated by the flow cytometry method.

human Claudin 3 [9] = target: T1, human Claudin 3; test: flow cytometry, MCF7 cells (endogenous Claudin 3), 5 ug/mL antibody
Experimental: as §1, §3

B1: CDN27 (antibody, V domains shown)
VH: EVQLQQSGPELVKPGASVKISCKASGYSFTGYFMNWVKQSHGKSLEWIGRINPYNGDTFYNQKFKGKATLTVDKSSSTAHMELRSLTSEDSAVYYCARSGDWYFDVWGAGTTVTVSS
VL: DIVLTQSPASLAVSLGQRATISCRASKSVSTSSYSYMHWYQQKPGQPPKLLIKFASYLESGVPARFSGSGSGTDFTLNIHPVEEEDAATYYCQHSREFPRTFGGGTKLEIKR
notes: mouse monoclonal, IgG2a/IgK
Question: Which results are given for B1?
Answer: X geometric mean (human Claudin 3 [1]): 1790; X geometric mean (human Claudin 3 [2]): 2700; X geometric mean [3]: 42; X geometric mean (human Claudin 3 [4]): 3340; X geometric mean [5]: 302; X geometric mean [6]: 25; X geometric mean (mouse Claudin 3): 50; X geometric mean (human Claudin 3 [7]): 308; X geometric mean (human Claudin 3 [8]): 202; X geometric mean (human Claudin 3 [9]): 310

B2: CDN38 (antibody, V domains shown)
VH: EVQLQQSGPELVKPGASVKMSCKASGYSFTGYFMNWVKQSHGKSLEWIGRINPYNGDTFYNQKFKGKATLTVDKSSSTAHMELRSLTSEDSALYYCARSGNYVMDYWGQGTSVTVSS
VL: DIVLTQSPASLAVSLGQSVTISCRASESVEYYGTSLMQWYQQKPGQPPKLLIYGASNVESGVPARFSGSGSGTDFSLNIHPVEEDDIAMYFCQQSRKVPWTFGGGTKLEIKR
Question: How did the X geometric mean (human Claudin 3 [1]) turn out when B2 was run?
Answer: 215

Question: And the X geometric mean (human Claudin 3 [2])?
Answer: 258

Question: And the X geometric mean [3]?
Answer: 7

Question: And the X geometric mean (human Claudin 3 [4])?
Answer: 142

Question: What about the X geometric mean [5] of the same binder?
Answer: 74

Question: And the X geometric mean [6]?
Answer: 9

Question: What about the X geometric mean (mouse Claudin 3) of the same binder?
Answer: 115

Question: What about the X geometric mean (human Claudin 3 [7]) of the same binder?
Answer: 207

Question: And the X geometric mean (human Claudin 3 [8])?
Answer: 63

Question: What about the X geometric mean (human Claudin 3 [9]) of the same binder?
Answer: 61

B3: CDN35 (antibody, V domains shown)
VH: EVQLQQSGPELVKPGASVKMSCKASGYTFTDYYMNWVKQSHGKSLEWIGRVNPSNGGTSYNQKFKGKATLTVDKSLSTAYMQLNSLTSEDSAVYYCARGLAYYSNSFTYWGQGTLVTVSA
VL: KIVLTQSPASLAVSLRQRATISCRASESVDSYGNSFMHWYQQKPGQPPKLLIYRASNLESGVPARFSGSGSRTDFTLTIDPVEADDAATYYCQQNNEDPWTFGGGTKLEIKR
notes: mouse monoclonal, IgG2a/IgK
Question: For B3, which X geometric mean (human Claudin 3 [1]) is on record?
Answer: 869

Question: What about the X geometric mean (human Claudin 3 [2]) of the same binder?
Answer: 2300

Question: What about the X geometric mean (human Claudin 3 [4]) of the same binder?
Answer: 2150

Question: What about the X geometric mean [5] of the same binder?
Answer: 59

Question: And the X geometric mean [6]?
Answer: 36

Question: And the X geometric mean (mouse Claudin 3)?
Answer: 1310

Question: And the X geometric mean (human Claudin 3 [7])?
Answer: 120

Question: What about the X geometric mean (human Claudin 3 [8]) of the same binder?
Answer: 176

Question: What about the X geometric mean (human Claudin 3 [9]) of the same binder?
Answer: 380

B4: CDN16 (antibody, mouse IgG2b, kappa, V domains shown)
VH: EVQLQQSGPELVKPGASVKMSCKASGYTFTDYYMNWVKQSHGKSLEWIGRVNPSNGGTSYNQKFKGKATLTVDKSLSTAYMQLNSLTSEDSAVYYCARGLAYYSNSFVYWGQGTLVTVSA
VL: KIVLTQSPASLAVSLRQRATISCRASESVDSYGNSFMHWYQQKPGQPPKLLIYRASNLESGVPARFSGSGSRTDFTLTIDPVEADDAATYYCQQNNEDPWTFGGGTKLEIKR
notes: mouse monoclonal, IgG2b/IgK
Question: For B4, which X geometric mean (human Claudin 3 [1]) is on record?
Answer: 928

Question: And the X geometric mean (human Claudin 3 [2])?
Answer: 2480

Question: And the X geometric mean (human Claudin 3 [4])?
Answer: 1980

Question: And the X geometric mean [5]?
Answer: 11

Question: What about the X geometric mean [6] of the same binder?
Answer: 9

Question: What about the X geometric mean (mouse Claudin 3) of the same binder?
Answer: 1270

Question: What about the X geometric mean (human Claudin 3 [7]) of the same binder?
Answer: 125

Question: What about the X geometric mean (human Claudin 3 [8]) of the same binder?
Answer: 125

Question: What about the X geometric mean (human Claudin 3 [9]) of the same binder?
Answer: 361

B5: CDN04 (antibody, mouse IgG1, kappa, V domains shown)
VH: EVQLQQSGPELVKPGASMKISCKASGYSFTGYTMNWMKQGHGKNLEWIGLINPYNGGTSYNQKFKDKATLTLDKSSSSAYMELLSLTSEDSAVYYCARGSYGSSYFDYWGQGTTLTVSS
VL: DIVMSQSPSSLAVSVGEKVTMSCKSSQSLLYGSNQKNYLAWYQQKPGQSPKLLIYWASTRESGVPDRFTGSGSGTDFTLTISSVKAEDLAVYYCQQYYNFPYTFGGGTKLEIKR
notes: mouse monoclonal, IgG1/IgK; also called CDN4
Question: With B5 as the binder, how does the X geometric mean (human Claudin 3 [1]) read?
Answer: 180

Question: And the X geometric mean (human Claudin 3 [2])?
Answer: 667

Question: And the X geometric mean [3]?
Answer: 11

Question: And the X geometric mean (human Claudin 3 [4])?
Answer: 366

Question: What about the X geometric mean [5] of the same binder?
Answer: 14

Question: What about the X geometric mean [6] of the same binder?
Answer: 9

Question: What about the X geometric mean (mouse Claudin 3) of the same binder?
Answer: 16

Question: What about the X geometric mean (human Claudin 3 [7]) of the same binder?
Answer: 28

Question: What about the X geometric mean (human Claudin 3 [8]) of the same binder?
Answer: 47

Question: What about the X geometric mean (human Claudin 3 [9]) of the same binder?
Answer: 130

B6: CDN28 (antibody, mouse IgG1, kappa, V domains shown)
VH: EVQLQQSGPELVKPGASVKISCKASGYSFTGYFMNWVKQSHGKSLEWLGRINPYNGDTFYNQKFKGKATLTVDKSSNTAHMELRSLTSEDSAVYYCARGDGYYVTSLAYWGQGTLVTVSA
VL: NIVMTQSPKSMSMSVGERVTLSCKASENVVSYVSWFQQKPEQSPKLLIYGASNRYTGVPDRFTGSGSATDFTLTISSVQAEDLADYYCGQSYSYPLTFGAGTKLELKR
notes: mouse monoclonal, IgG1/IgK
Question: For B6, which X geometric mean (human Claudin 3 [1]) is on record?
Answer: 1450

Question: And the X geometric mean (human Claudin 3 [2])?
Answer: 1990

Question: And the X geometric mean [3]?
Answer: 12

Question: What about the X geometric mean (human Claudin 3 [4]) of the same binder?
Answer: 1430

Question: And the X geometric mean [5]?
Answer: 27

Question: And the X geometric mean [6]?
Answer: 9

Question: And the X geometric mean (human Claudin 3 [7])?
Answer: 275

Question: And the X geometric mean (human Claudin 3 [8])?
Answer: 175

Question: And the X geometric mean (human Claudin 3 [9])?
Answer: 186

— patent US20100111852A1 (FORERUNNER PHARMA RESEARCH, published 2010)
